What was measured:
XIAP = target: T1, XIAP (Homo sapiens, UniProt P61081+P98170); assay: SILAC mass spectrometry screen for XIAP substrates with NEDDylator^XIAP in apoptotic Jurkat cell lysate; format: biochemical; details: Heavy lysate with Ubc12
T1 construct: The N-terminus (residues 1-434) of XIAP was then fused via a flexible Gly-Gly-Ser-Gly linker to the NEDD8 E2, Ubc12; GST (N, cleaved yes); made in house; host or cells: E. coli BL21 (DE3)
Experimental: Jurkat cells were grown in media containing either light or heavy isotopes of lysine and arginine and induced to undergo apoptosis with STS. Light cell extracts were incubated with the respective catalytic tagging system for each of the two IAPs and the heavy extracts labeled only with the wild-type NEDD8 E2, Ubc12. 64 mg regular L-Lys and 83.6 mg L-Arg.HCl were added to 1 liter RPMI-1640 minus L-Lys and L-Arg (Thermo/Pierce), 10% fetal bovine serum (FBS) to generate “Light” medium. 100 mg ^13C6^15N2 L-Lys.2HCl and 86 mg ^13C6 L-Arg.HCl (Cambridge Isotope) were added to the same amount of medium to generate the “Heavy” medium. Jurkat cells were cultured separately in “Light” or “Heavy” medium for 7 days to allow for thorough isotope incorporation. For IAP substrate identification, 400 million cells were treated with 2 μM STS for 4 hours, harvested, lysed in M-PER mammalian protein extraction buffer (Thermo/Pierce) in the presence of protease inhibitors (100× ProteoBlock cocktail, Fermentas) and mixed with cell lysate prepared from 400 million untreated cells. The NEDDylated proteins were isolated under denaturing conditions via the HB-NEDD8 tag using a tandem affinity pull down procedure (Tagwerker et al., Mol Cell Proteomics 5:737-748 (2006)) (FIG. 11). Purified NEDDylated proteins were trypsinized and analyzed with tandem mass spectrometry (LC-MS/MS).
(§1) For SILAC experiments, Jurkat cells were cultured separately in “Light” (supplemented with regular Lys and Arg) or “Heavy” (supplemented with ^13C6^15N2 Lys and ^13C6 Arg) medium for 7 days to allow for thorough isotope incorporation. Apoptotic “Light” and “Heavy” cell extracts were prepared individually. The lysates were cleared by spinning and then diluted in 50 mM HEPES pH 7.4, 150 mM NaCl to 5 mg/ml and supplemented with 5 mM ATP, 10 mM MgCl2. Endogenous NEDD8 E1 is cell lysate was used to catalyze the reaction. HB-NEDD8 was added to both lysate at mass ratio 1:500; the catalytic tagging system was added to the “Light” lysate at mass ratio 1:1000. Equal molar of Ubc12 was added to the “Heavy” lysate. […] NEDDylated proteins were separated by one-dimensional SDS-PAGE, and trypsinized for LC-MS/MS analysis.
For liquid chromatography—Tandem mass spectrometry (LC-MS/MS) analysis, the tryptic peptides were first desalted and concentrated with a C18 Ziptip (Millipore). LC-MS/MS was carried out by reverse phase LC interfaced with a LTQ-Orbitrap (ThermoFisher Scientific) hybrid mass spectrometer. A nanoflow HPLC (NanoAcquity UPLC system, Waters Corporation) was equipped with a trap column (180 μm×20 mm, 5 μm SymmetryC18, from Waters) and an analytical column (100 μm×100 mm, 1.7 μm BEH130C18, from Waters). […]

cIAP1 = target: T2, cIAP1 (Homo sapiens, UniProt P61081+Q13490); assay: SILAC mass spectrometry screen for cIAP1 substrates with NEDDylator^cIAP1 in apoptotic Jurkat cell lysate; format: biochemical; details: Light lysate with NEDDylator^cIAP1, Heavy lysate with Ubc12
T2 construct: cIAP1(ΔR) (residues 1-555); GST (N, cleaved yes); made in house; host or cells: E. coli BL21 (DE3)
T2 sequence (Q13490+P61081 fused): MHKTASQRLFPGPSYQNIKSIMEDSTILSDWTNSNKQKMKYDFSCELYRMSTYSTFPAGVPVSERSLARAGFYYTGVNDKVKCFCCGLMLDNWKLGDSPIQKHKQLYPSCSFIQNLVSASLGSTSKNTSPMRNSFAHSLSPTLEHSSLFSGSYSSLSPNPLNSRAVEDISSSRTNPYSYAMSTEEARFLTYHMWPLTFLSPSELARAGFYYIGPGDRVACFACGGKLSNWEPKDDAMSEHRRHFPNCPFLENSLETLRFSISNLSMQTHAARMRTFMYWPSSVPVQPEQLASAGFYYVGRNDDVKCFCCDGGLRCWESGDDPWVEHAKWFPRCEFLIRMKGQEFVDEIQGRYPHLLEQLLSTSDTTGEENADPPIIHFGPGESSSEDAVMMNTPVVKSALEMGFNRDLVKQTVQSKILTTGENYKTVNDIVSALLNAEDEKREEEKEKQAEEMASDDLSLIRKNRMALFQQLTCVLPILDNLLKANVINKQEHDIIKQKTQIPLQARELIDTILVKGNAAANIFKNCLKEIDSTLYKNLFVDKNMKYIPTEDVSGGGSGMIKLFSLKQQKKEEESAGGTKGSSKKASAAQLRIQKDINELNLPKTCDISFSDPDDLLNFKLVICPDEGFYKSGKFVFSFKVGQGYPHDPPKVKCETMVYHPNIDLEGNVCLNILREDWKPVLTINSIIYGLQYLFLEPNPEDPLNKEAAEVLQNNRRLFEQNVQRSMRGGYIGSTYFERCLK
Experimental: Jurkat cells were grown in media containing either light or heavy isotopes of lysine and arginine and induced to undergo apoptosis with STS. Light cell extracts were incubated with the respective catalytic tagging system for each of the two IAPs and the heavy extracts labeled only with the wild-type NEDD8 E2, Ubc12. […] 100 mg ^13C6^15N2 L-Lys.2HCl and 86 mg ^13C6 L-Arg.HCl (Cambridge Isotope) were added to the same amount of medium to generate the “Heavy” medium. Jurkat cells were cultured separately in “Light” or “Heavy” medium for 7 days to allow for thorough isotope incorporation. For IAP substrate identification, 400 million cells were treated with 2 μM STS for 4 hours, harvested, lysed in M-PER mammalian protein extraction buffer (Thermo/Pierce) in the presence of protease inhibitors (100× ProteoBlock cocktail, Fermentas) and mixed with cell lysate prepared from 400 million untreated cells. […] Purified NEDDylated proteins were trypsinized and analyzed with tandem mass spectrometry (LC-MS/MS).
as §1
For liquid chromatography—Tandem mass spectrometry (LC-MS/MS) analysis, the tryptic peptides were first desalted and concentrated with a C18 Ziptip (Millipore). LC-MS/MS was carried out by reverse phase LC interfaced with a LTQ-Orbitrap (ThermoFisher Scientific) hybrid mass spectrometer. A nanoflow HPLC (NanoAcquity UPLC system, Waters Corporation) was equipped with a trap column (180 μm×20 mm, 5 μm SymmetryC18, from Waters) and an analytical column (100 μm×100 mm, 1.7 μm BEH130C18, from Waters). Peptides were eluted over a linear gradient from 2% solvent A (0.1% formic acid in water) to 35% solvent B (0.1% formic acid in acetonitrile) at 350 nL/min over 35 min. MS and MS/MS spectra were acquired in a data-dependent mode with MS spectra acquired in the Orbitrap at 30,000 resolving power and 6 CID MS/MS spectra acquired per MS in the LTQ linear ion trap. Dynamic exclusion was set at 90 seconds to prevent repeated MS/MS on the same precursor ion.
The identified peptides were searched against a random decoy protein database for evaluating the false positive rates. […] The decoy peptides were removed from the data. Protein IDs were assigned only when at least two unique peptides were identified from the same protein. For SILAC experiment, Light/Heavy ratios for the identified peptides were calculated, using ProteinProspector. The media Light/Heavy ratios of all the peptides identified for each protein were used to represent the Light/Heavy ratio of the protein.

T1 sequence (P98170+P61081 fused): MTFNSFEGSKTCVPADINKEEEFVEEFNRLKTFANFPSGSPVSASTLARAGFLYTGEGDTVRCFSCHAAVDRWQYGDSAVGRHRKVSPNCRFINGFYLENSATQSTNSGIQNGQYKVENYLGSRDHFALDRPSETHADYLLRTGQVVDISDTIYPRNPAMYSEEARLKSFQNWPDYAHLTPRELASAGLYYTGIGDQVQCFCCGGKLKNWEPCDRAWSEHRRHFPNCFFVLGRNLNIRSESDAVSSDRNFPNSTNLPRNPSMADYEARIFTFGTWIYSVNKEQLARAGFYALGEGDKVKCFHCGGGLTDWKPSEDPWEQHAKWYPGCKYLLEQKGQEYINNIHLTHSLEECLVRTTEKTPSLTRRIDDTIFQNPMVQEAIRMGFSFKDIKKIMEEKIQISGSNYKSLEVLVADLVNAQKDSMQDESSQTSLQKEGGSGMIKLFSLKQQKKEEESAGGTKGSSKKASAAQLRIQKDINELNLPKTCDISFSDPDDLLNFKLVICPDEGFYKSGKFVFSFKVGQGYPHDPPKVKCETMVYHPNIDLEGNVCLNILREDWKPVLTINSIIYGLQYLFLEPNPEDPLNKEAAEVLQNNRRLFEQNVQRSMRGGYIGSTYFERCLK

B1: Pre-mRNA-splicing factor SPF27: potential XIAP substrate (protein, UniProt O75934 2-225, looked up)
Pre-mRNA-splicing factor SPF27: AGTGLVAGEVVVDALPYFDQGYEAPGVREAAAALVEEETRRYRPTKNYLSYLTAPDYSAFETDIMRNEFERLAARQPIELLSMKRYELPAPSSGQKNDITAWQECVNNSMAQLEHQAVRIENLELMSQHGCNAWKVYNENLVHMIEHAQKELQKLRKHIQDLNWQRKNMQLTAGSKLREMESNWVSLVSKNYEIERTIVQLENEIYQIKQQHGEANKENIRQDF
L/H (Light/Heavy ratio) (XIAP): 4.35

B2: 3-hydroxyacyl-CoA dehydrogenase type-2: potential cIAP1 substrate (protein, UniProt Q99714 2-261, looked up)
3-hydroxyacyl-CoA …: AAACRSVKGLVAVITGGASGLGLATAERLVGQGASAVLLDLPNSGGEAQAKKLGNNCVFAPADVTSEKDVQTALALAKGKFGRVDVAVNCAGIAVASKTYNLKKGQTHTLEDFQRVLDVNLMGTFNVIRLVAGEMGQNEPDQGGQRGVIINTASVAAFEGQVGQAAYSASKGGIVGMTLPIARDLAPIGIRVMTIAPGLFGTPLLTSLPEKVCNFLASQVPFPSRLGDPAEYAHLVQAIIENPFLNGEVIRLDGAIRMQP
L/H (Light/Heavy ratio) (cIAP1): 4.1

B3: Serine protease HtrA2, mitochondrial: known IAP substrate (protein, UniProt O43464 134-458, looked up)
Serine protease HTRA2, …: AVPSPPPASPRSQYNFIADVVEKTAPAVVYIEILDRHPFLGREVPISNGSGFVVAADGLIVTNAHVVADRRRVRVRLLSGDTYEAVVTAVDPVADIATLRIQTKEPLPTLPLGRSADVRQGEFVVAMGSPFALQNTITSGIVSSAQRPARDLGLPQTNVEYIQTDAAIDFGNSGGPLVNLDGEVIGVNTMKVTAGISFAIPSDRLREFLHRGEKKNSSSGISGSQRRYIGVMMLTLSPSILAELQLREPSFPDVQHGVLIHKVILGSPAHRAGLRPGDVILAIGEQMVQNAEDVYEAVRTQSQLAVQIRRGRETLTLYVTPEVTE
L/H (Light/Heavy ratio) (XIAP): 21.4
L/H (Light/Heavy ratio) (cIAP1): 39.2

B4: SMAC/Diablo homolog, mitochondrial: known IAP substrate (protein, UniProt Q9NR28 22-239, looked up)
Diablo IAP-binding …: LCVPVVANFKKRCFSELIRPWHKTVTIGFGVTLCAVPIAQKSEPHSLSSEALMRRAVSLVTDSTSTFLSQTTYALIEAITEYTKAVYTLTSLYRQYTSLLGKMNSEEEDEVWQVIIGARAEMTSKHQEYLKLETTWMTAVGLSEMAAEAAYQTGADQASITARNHIQLVKLQVEEVHQLSRKAETKLAEAQIEELRQKTQEEGEERAESEQEAYLRED
L/H (Light/Heavy ratio) (XIAP): 7.39
L/H (Light/Heavy ratio) (cIAP1): 53.4

B5: Malate dehydrogenase, mitochondrial: potential cIAP1 substrate (protein, UniProt P40926 25-338, looked up)
Malate dehydrogenase, …: AKVAVLGASGGIGQPLSLLLKNSPLVSRLTLYDIAHTPGVAADLSHIETKAAVKGYLGPEQLPDCLKGCDVVVIPAGVPRKPGMTRDDLFNTNATIVATLTAACAQHCPEAMICVIANPVNSTIPITAEVFKKHGVYNPNKIFGVTTLDIVRANTFVAELKGLDPARVNVPVIGGHAGKTIIPLISQCTPKVDFPQDQLTALTGRIQEAGTEVVKAKAGAGSATLSMAYAGARFVFSLVDAMNGKEGVVECSFVKSQETECTYFSTPLLLGKKGIEKNLGIGKVSSFEEKMISDAIPELKASIKKGEDFVKTLK
L/H (Light/Heavy ratio) (cIAP1): 4.35

Source: patent publication US20150010525A1, “Catalytic Tagging System to Study Macro-Molecular Interactions Using Engineered Ubiquitin Ligase and Ubiquitin-Like Proteins to Facilitate Substrate Identification” (THE REGENTS OF THE UNIVERSITY OF CALIFORNIA, priority 2012, published 2015)
